Where “and” joins values, the source holds several entries; their conditions need not be identical. Identical values can stand only once.
Target: HIV-1LAI envelope gp120 labeled with radioactive iodine (HIV-1 LAI), P03377
Assay: 125I-gp120, peptide array

| Binder | counts minus background (counts per 20 min) |
| --- | --- |
| VIIKTLLHAGGFQKHRSL (modifications not checked) [STRL33 213-230] | 962 and 682 |
| QWKSSEDNSKTFSASHNV (modifications not checked) [STRL33 317-334] | 464 and 534 |
| KVTSLLIWVISLLVSLPQ (modifications not checked) [STRL33 149-166] | -39.5 and -118 |
| LLIWVISLLVSLPQIIYG (modifications not checked) [STRL33 153-170] | 42.5 and 75.5 |
| LMKFIRSTHWEYYAMTSF (modifications not checked) [STRL33 249-266] | 934 and 950 |
| AYLRACLNPVLYAFVSLK (modifications not checked) [STRL33 277-294] | 1800 and 1850 |
| TVVLATQMTLGFFLPLLT (modifications not checked) [STRL33 189-206] | 2330 and 2390 |
| SLKIIFLVMAVFLLTQMP (modifications not checked) [STRL33 229-246] | 612 and 854 |
| YGNVFNLDKLICGYHDEA (modifications not checked) [STRL33 169-186] | -41.5 and -20.5 |
| TEAIAYLRACLNPVLYAF (modifications not checked) [STRL33 273-290] | 604 and 480 |
| QAKRMTWGKVTSLLIWVI (modifications not checked) [STRL33 141-158] | -71.5 and -31.5 |
| QKHRSLKIIFLVMAVFLL (modifications not checked) [STRL33 225-242] | 810 and 814 |
| FFIILLTIDRYLAVVHAV (modifications not checked) [CCR5 117-134] | 77 |
| LLTIDRYLAVVHAVFALK (modifications not checked) [CCR5 121-138] | 31 |
| TIMVTEAIAYLRACLNPV (modifications not checked) [STRL33 269-286] | 140 and 272 |
| KLICGYHDEAISTVVLAT (modifications not checked) [STRL33 177-194] | 1360 and 1600 |
| HWEYYAMTSFHYTIMVTE (modifications not checked) [STRL33 257-274] | 2040 and 3070 |
| GVSHQWKSSEDNSKTFSA (modifications not checked) [STRL33 313-330] | 208 and 306 |
| AFVSLKFRKNFWKLVKDI (modifications not checked) [STRL33 289-306] | 808 and 1040 |
| FNLDKLICGYHDEAISTV (modifications not checked) [STRL33 173-190] | 1070 and 1080 |
| LLTQMPFNLMKFIRSTHW (modifications not checked) [STRL33 241-258] | 2510 and 3150 |
| CQLLTGLYFIGFFSGIFF (modifications not checked) [CCR5 101-118] | 489 |
| FLPLLTMIVCYSVIIKTL (modifications not checked) [STRL33 201-218] | 1270 and 1200 |
| MAVFLLTQMPFNLMKFIR (modifications not checked) [STRL33 237-254] | 2260 and 2840 |

| Binder | counts minus background (counts per 20 min) |
| --- | --- |
| AGGFQKHRSLKIIFLVMA (modifications not checked) [STRL33 221-238] | 340 and 260 |
| IFLVMAVFLLTQMPFNLM (modifications not checked) [STRL33 233-250] | 386 and 772 |
| FIGFFSGIFFIILLTIDR (modifications not checked) [CCR5 109-126] | 76 |
| LTMIVCYSVIIKTLLHAG (modifications not checked) [STRL33 205-222] | 2790 and 2650 |
| IRSTHWEYYAMTSFHYTI (modifications not checked) [STRL33 253-270] | 1570 and 1810 |
| ATQMTLGFFLPLLTMIVC (modifications not checked) [STRL33 193-210] | 2370 and 2440 |
| PVLYAFVSLKFRKNFWKL (modifications not checked) [STRL33 285-302] | 1860 and 2150 |
| GYHDEAISTVVLATQMTL (modifications not checked) [STRL33 181-198] | 754 and 1180 |
| FSGIFFIILLTIDRYLAV (modifications not checked) [CCR5 113-130] | 83 |
| LKFRKNFWKLVKDIGCLP (modifications not checked) [STRL33 293-310] | 920 and 958 |
| YAMTSFHYTIMVTEAIAY (modifications not checked) [STRL33 261-278] | 2690 and 2360 |
| PQIIYGNVFNLDKLICGY (modifications not checked) [STRL33 165-182] | -18.5 and -37.5 |
| ACLNPVLYAFVSLKFRKN (modifications not checked) [STRL33 281-298] | 4170 and 4520 |
| DRYLAVVHAVFALKARTV (modifications not checked) [CCR5 125-142] | 62 |
| VISLLVSLPQIIYGNVFN (modifications not checked) [STRL33 157-174] | -60.5 and -128 |
| IYDINYYTSEPCQKINVK (modifications not checked) [CCR5 9-26] | 228 |
| MPFNLMKFIRSTHWEYYA (modifications not checked) [STRL33 245-262] | 2170 and 2180 |
| SFHYTIMVTEAIAYLRAC (modifications not checked) [STRL33 265-282] | 762 and 1030 |
| EAISTVVLATQMTLGFFL (modifications not checked) [STRL33 185-202] | 3970 and 3750 |
| GNTMCQLLTGLYFIGFFS (modifications not checked) [CCR5 97-114] | 941 |
| TLLHAGGFQKHRSLKIIF (modifications not checked) [STRL33 217-234] | 1040 and 1000 |
| VCYSVIIKTLLHAGGFQK (modifications not checked) [STRL33 209-226] | 1330 and 1140 |
| AVVHAVFALKARTVTFGV (modifications not checked) [CCR5 129-146] | 34 |

Reference: US7304127
